Assay results as given in paper PMC7877911 (eLife, 2021).
Values belong to the compound of their own block, whether it stands above or below them.

What was measured:
[1] = target: Svi3-3_d19 (N-terminally truncated 146 amino acid construct of SAMase Svi3-3, hexahistidine tag removed) (environmental phage); assay: crystal structure; Svi3-3_d19 (10 mg/ml) crystallised with 5 mM SAM (product MTA bound), with 5 mM SAH, or without ligand; sitting drop, 293 K, 0.4-0.6 M ammonium phosphate; space group F4(1)32, one monomer in the asymmetric unit, trimer around the threefold crystallographic axis
[2] = target: Svi3-3_d19 E69A (environmental phage); assay: SEC; HiLoad 16/60 Superdex 75 pg, 25 mM Tris-HCl, 150 mM NaCl, pH 8.0; His-tagged protein eluted from Ni Sepharose
[3] = target: Svi3-3_d19 E105Q (environmental phage); assay: as above
[4] = target: Svi3-3_d19 E69Q (environmental phage); assay: as above
T3 SAMase = T3 SAMase (Enterobacteria phage T3, UniProt P07693); details: 2 mM SAM, 50 mM NaPi pH 7.4, 25°C
[5] = target: His6-tagged Svi3-3_d19 (environmental phage); assay: SEC-SAXS; His6-tagged Svi3-3_d19 at 10-13 mg/ml with and without 5 mM SAM; Shodex KW403 column, 25 mM Tris-HCl pH 8.0, 150 mM NaCl
[6] = target: His6-tagged Svi3-3_d19 (environmental phage); assay: SEC; HiLoad 16/60 Superdex 75 pg, 25 mM Tris-HCl, 150 mM NaCl, pH 8.0; His-tagged protein eluted from Ni Sepharose

Chain of T3 SAMase (P07693 whole entry): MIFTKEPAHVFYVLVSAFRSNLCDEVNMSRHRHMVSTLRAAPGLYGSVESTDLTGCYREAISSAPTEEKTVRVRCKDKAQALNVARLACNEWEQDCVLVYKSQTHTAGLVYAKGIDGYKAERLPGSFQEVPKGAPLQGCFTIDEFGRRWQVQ

Compound: Svi3-3_d19 E69A (enzyme)
stoichiometry N [2]: 3

Compound: Svi3-3_d19 E69Q (enzyme)
stoichiometry N [4]: 3

Compound: C[S+](CC[C@H](N)C(=O)O)C[C@H]1O[C@@H](n2cnc3c(N)ncnc32)[C@H](O)[C@@H]1O (stereo partly drawn) [SAM, S-(5’-Adenosyl)-L-methionine]
TLC of reaction products; ion exchange chromatography (T3 SAMase): The same assay was performed with T3 SAMase and Orf1

Compound: His6-tagged Svi3-3_d19 (enzyme)
stoichiometry N [5]: 3 | stoichiometry N [6]: 3

More lines, now with the values ahead:

stoichiometry N [1]: 3
Compound: Svi3-3_d19 (N-terminally truncated 146 amino acid construct of SAMase Svi3-3, hexahistidine tag removed) (enzyme)

stoichiometry N [3]: 3
Compound: Svi3-3_d19 E105Q (enzyme)
